The values below come from the supplement of paper PMC9170038.

This data set relates to MS2 coat protein. The data set is described as follows: apparent KD of MS2 coat protein; designed switch direction (-1 OFF switch, 1 ON switch): -1; higher = weaker reporter binding. The gist of the method:
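The apparent KD reported per design is the median over clusters of curve fits to normalised cluster fluorescence. The RNA switches were transcribed on Illumina chips by stalled E. coli RNA polymerase. SNAP-549-labelled MS2 coat protein was titrated from 0.7 or 1.5 nM, doubling up to 3 µM, in Tris-HCl pH 7.5 buffer containing KCl, MgCl2, BSA, DTT, tRNA and Tween-20, with no input, 200 uM small-molecule ligand, or an oligonucleotide input.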

Setting [1] is: Eterna round: R95, input ligand: microRNA oligo, concentration not stated.
Setting [2] is: input ligand: microRNA oligo, concentration not stated.
Where [3] appears, read: Eterna round: R95, input ligand: FMN 200 uM.
Where [4] appears, read: Eterna round: R95, input ligand: none.

As for “AAUCCACAUGAGGAUCACCCAUGUCAGGAUAUGGUGACGCGGGUUUCGGUGCGUGUUGCCAGAAGGGACGGCUG (puzzle: Exclusion 1)”, the “apparent KD of MS2 coat protein” value under setting [1] turned out to be 23.8 nM.

Regarding “AAUCCUAGCGUAAGGAUAUCAAAACUAUCCCGUUAUGAGAAGGUACAUGAGGAUCACCCAUGUUAAUGGGAUAA [BmEX4 A.19] (Eterna round: R97, puzzle: Brourd's mod of Exclusion 4)”, the “apparent KD of MS2 coat protein” value (input ligand: FMN 200 uM) amounted to 20.2 nM and the “apparent KD of MS2 coat protein” value (input ligand: none) turned out to be 19.3 nM.

“AAUGAUUGACGAGGAUAUUGUGGUGAAACACGACGAGAAGGCGUAUGUCACAUGAGGAUCACCCAUGUGAACUUUGUGGAUAUA [Ex NG1 #70] (Eterna round: R96, puzzle: Exclusion NG 1)”: the “apparent KD of MS2 coat protein” value runs as follows: (input ligand: FMN 200 uM) 30.4 nM; under setting [2], 33.3 nM; (input ligand: none) 38.8 nM.

For “AAUGAUUGAUGAGGAUAUUGUGGUGAAACACGACGAGAAGGCAUAUGUCACAUGAGGAUCACCCAUGUGAGCCUUGUGGAUAUA [Ex NG1 #66] (Eterna round: R96, puzzle: Exclusion NG 1)”, the “apparent KD of MS2 coat protein” value reads like this: (input ligand: FMN 200 uM) 115 nM; under setting [2], 45.9 nM; (input ligand: none) 57.9 nM.

For the sequence “AAUGGAUGUGUUAGGAUAUCCGGAGGGAAACCUCCGGAGAAGGAACAUGAGGAUCACCCAUGUAUGUAAAAUAC [AK-MS2ROC-r4-Bmoexclusion4-3] (Eterna round: R97, puzzle: Brourd's mod of Exclusion 4)”, the “apparent KD of MS2 coat protein” value reads like this: (input ligand: FMN 200 uM) 449 nM; (input ligand: none) 111 nM.

In the case of “AAUUAAACAUAGGAUAUCGAAUUUAUUAUUUAACGAGAAGGAUGAACAUGAGGAUCACCCAUGUGGUAUCAUGG [Mat - Exclusion 6 - JL Mod - D23] (puzzle: Exclusion 6)”, the “apparent KD of MS2 coat protein” value is 333 nM under setting [3], 197 nM under setting [1] and 213 nM under setting [4].

For the sequence “AAUUAACAAGCAAGAUCCUACAUGAGGAUCACCCAUGUGCUCGUCUUAUAAAGUACUAUCACGAAAGUGAUAGUACA [Mat - Sensor v3 - turn-off var 1 - Eli Mod - D57] (puzzle: Sensor v3, turn-off variant 1)”, the “apparent KD of MS2 coat protein” value under setting [3] amounted to 217 nM, the “apparent KD of MS2 coat protein” value under setting [1] was determined as 357 nM and the “apparent KD of MS2 coat protein” value under setting [4] turned out to be 197 nM.

Regarding “AAUUAACUAGGAUAUACUUGAGGAUCACCCAAGUGGGCUCCACCUGCUUGGCUCCCAGGUAGAAGGAGUAUACA [Tioner] (Eterna round: R97, puzzle: Exclusion 3)”, the “apparent KD of MS2 coat protein” value reads like this: (input ligand: FMN 200 uM) 213 nM; (input ligand: none) 538 nM.

Consider “AAUUAGCAAGCGAGAUCCCACAUGAGGAUCACCCAUGUGCUCGUCUUAUAUAAGGUACUGUACGAGAGUACGGUACC [Mat - Sensor, turn-off var - Eli Mod - D30] (Eterna round: R97, puzzle: Sensor, turn-off variant 1)”, for which the “apparent KD of MS2 coat protein” value was 12.1 nM (input ligand: FMN 200 uM) and 10.6 nM (input ligand: none).

Consider “AAUUAUUUUUGAGGAUAUCGUGGUGAAACACCACGAGAAGGCAAGAUACACAUGAGGAUCACCCAUGUGAGCCUGAUGCUUAUG [Ex NG1 #52] (Eterna round: R96, puzzle: Exclusion NG 1)”, for which the “apparent KD of MS2 coat protein” value under setting [2] amounted to 13.2 nM.

In the case of “AAUUCACAUGAGGAUCACCCAUGUCAGGAUAUGGUUUUAUUUUUUUCUUUUCUUGAUUCCAGAAGGGACAGCUA (puzzle: Exclusion 1)”, the “apparent KD of MS2 coat protein” value under setting [1] was 70.8 nM.

“ACAAAGCUUUUUGCUCGUCACAUGAGGAUCACCCAUGUGAUAUAAUGAAAAUUAUAUGACAUCCCACUAGGACAUGU [I did it?] (Eterna round: R97, puzzle: Sensor, turn-off variant 1)”: the “apparent KD of MS2 coat protein” value reads like this: (input ligand: FMN 200 uM) 18.5 nM; (input ligand: none) 20.9 nM.

Consider “ACAAGAAUUUUGCUCGUAAAGUAGAAACGCGAGAGCGGGACAUGAGGAUCACCCAUGUAAAGGCAGUUGGUGGAGAU [JR_SV3TOV2_Sub028] (puzzle: Sensor v3, turn-off variant 2)”, for which the “apparent KD of MS2 coat protein” value is, setting by setting: under setting [3], 39.7 nM; under setting [1], 53.2 nM; under setting [4], 48.7 nM.

Regarding “ACAAGCAGAGAGUAAAUGGACAUGAGGAUCACCCAUGUGAGUCCAAGGAGAUAAGAUAUAUUAUUGGCUCGUCUUAU [AK-miRNA-r3-20] (Eterna round: R97, puzzle: Sensor, turn-off variant 1)”, the “apparent KD of MS2 coat protein” value runs as follows: (input ligand: FMN 200 uM) 75.2 nM; (input ligand: none) 104 nM.

Take “ACAAGCAGAGAGUAAAUGGACAUGAGGAUCACCCAUGUGAGUCCAAGGAGAUAAGAUAUUAAAAAGGCUCGUCUUAU [AK-miRNA-r3-19] (Eterna round: R97, puzzle: Sensor, turn-off variant 1)”: the “apparent KD of MS2 coat protein” value runs as follows: (input ligand: FMN 200 uM) 112 nM; (input ligand: none) 98.3 nM.

Regarding “ACAAGCUCUGUGGGUGGUGACAUGAGGAUCACCCAUGUUUUGCUCGUCUUGUCCCGGGCCCGGCGCCCGGGCCCGGG [-40.4, -69.3, A 12%] (Eterna round: R97, puzzle: Sensor, turn-off variant 1)”, the “apparent KD of MS2 coat protein” value came out at 625 nM (input ligand: FMN 200 uM) and 1340 nM (input ligand: none).

“ACAAGCUCUGUGGGUGGUGACAUGAGGAUCACCCAUGUUUUGCUCGUCUUGUCGGCCGGCCGGCGCCCGGCCGGCCG [-39.6, -68.5, A 12%] (Eterna round: R97, puzzle: Sensor, turn-off variant 1)”: the “apparent KD of MS2 coat protein” value runs as follows: (input ligand: FMN 200 uM) 498 nM; (input ligand: none) 727 nM.

“ACAAGCUUAAAGGUGAAUAACAUGAGGAUCACCCAUGUUCGUCUUAUAAAAAUAAAAAUAAAAAAUAAAAAAUAAAA [Sensor V2: 62] (Eterna round: R96, puzzle: Sensor v2, turn-off variant)”: the “apparent KD of MS2 coat protein” value was determined as 25.6 nM (input ligand: FMN 200 uM), 87.2 nM under setting [2] and 27.9 nM (input ligand: none).

As to “ACAAGCUUAAUCUGUAUGAACAUGAGGAUCACCCAUGUAUAAGGGAAUUCUUUUGGGUUUUUUAUUGCUCGUCUUAU [JR_STOV1_Sub021] (Eterna round: R97, puzzle: Sensor, turn-off variant 1)”, the “apparent KD of MS2 coat protein” value came out at 317 nM (input ligand: FMN 200 uM) and 311 nM (input ligand: none).

Turning to “ACAAGCUUUUUGCUCGAAGAGUAGAAACGUGAGAGCGAAACAUGAGGAUCACCCAUGUAAAGGCAGUAGGUGAAGAU [JR_SV3TOV2_Sub024] (puzzle: Sensor v3, turn-off variant 2)”, the “apparent KD of MS2 coat protein” value runs as follows: under setting [3], 39.8 nM; under setting [1], 57.4 nM; under setting [4], 57.2 nM.

“ACAAGCUUUUUGCUCGGGUACAUGAGGAUCACCCAUGUUUGGGUUUAUUGAGGUUGUGUGGGCGUGCGCUGCAGGUU [JR_SV3TOV1_Sub075] (puzzle: Sensor v3, turn-off variant 1)”: the “apparent KD of MS2 coat protein” value under setting [3] was determined as 87.7 nM, the “apparent KD of MS2 coat protein” value under setting [1] came to 243 nM and the “apparent KD of MS2 coat protein” value under setting [4] stood at 118 nM.

Turning to “ACAAGCUUUUUGUUCGUCUUAUAAUAUUCAAUAAAGAUAACAUGAGGAUCACCCAUGUAACAAAGACGGACUCAUGU [Sesor Array 16 - Jieux - Sensor v3, turn-off variant 2] (puzzle: Sensor v3, turn-off variant 2)”, the “apparent KD of MS2 coat protein” value runs as follows: under setting [3], 16.5 nM; under setting [1], 267 nM; under setting [4], 12.4 nM.

Turning to “ACAAGGAUGAAGGAUAUGGAAGAGUGGGAGCCUCCAGAAGGUCGUACAUGAGGAUCACCCAUGUAUUGGGCUUA [Eternabot (L2) Solution 38] (Eterna round: R97, puzzle: Exclusion 6)”, the “apparent KD of MS2 coat protein” value amounted to 22.5 nM (input ligand: FMN 200 uM) and 21 nM (input ligand: none).

Regarding “ACACACAGAGGAUAUCUUCCGCAUGACAUGAGGAUCACCCAUGUGUGCAUGCCCAAAAGUAGAGAAGGCUGUGUGU [eternacac ex5r4 #3] (Eterna round: R97, puzzle: Exclusion 5)”, the “apparent KD of MS2 coat protein” value by setting is: (input ligand: FMN 200 uM) 27.1 nM; (input ligand: none) 35.6 nM.

As to “ACAGCGUGAGGAUAUACAUGAGGAUCACCCAUGUAUGGCAGGUUAUCCUGUCGUAAGUGUAGAAGGCACGCUGU [Exclusion 3 - Oddities v.4 ( A small slide from ms2 to fmn)] (puzzle: Exclusion 3)”, the “apparent KD of MS2 coat protein” value under setting [1] came to 18.8 nM.

As for “ACAUCACAUGAGGAUCACCCAUGUCAGGAUAUUCAGCGUAGCAUGCUACCUAACAUCAGAAGAAGGGACACGUA [First Design] (Eterna round: R97, puzzle: Exclusion 1)”, the “apparent KD of MS2 coat protein” value (input ligand: FMN 200 uM) was determined as 64.5 nM and the “apparent KD of MS2 coat protein” value (input ligand: none) stood at 68.2 nM.

As for “ACAUGAGGAGAAGGAUAUCUUUAGAGGGUUACCAGAGAAGGUCUAACAUGAGGAUCACCCAUGUCAUGAGGGUCUUGAAUGUUG [10th something] (Eterna round: R96, puzzle: Exclusion NG 1)”, the “apparent KD of MS2 coat protein” value (input ligand: FMN 200 uM) is 145 nM, the “apparent KD of MS2 coat protein” value under setting [2] worked out at 151 nM and the “apparent KD of MS2 coat protein” value (input ligand: none) amounted to 140 nM.

Consider “ACAUGAGGAUCACCCAUGUAAACAUAAUGGCUCAUGUAGAGUCAGGAUAUGCGUGGCGAACAAACGCAGAAGGGACAAGACUGG [Deportation 26 - Jieux - Exclusion NG 3] (Eterna round: R96, puzzle: Exclusion NG 3)”, for which the “apparent KD of MS2 coat protein” value by setting is: (input ligand: FMN 200 uM) 28.1 nM; under setting [2], 30.8 nM; (input ligand: none) 29.6 nM.

As for “ACAUGAGGAUCACCCAUGUAAACAUGAUGGCUGAUGUAGAGCUAGGAUAUGAGUGAAUAUCUAUCUCAGAAGGAGCUUGACUGG [Deportation 46 - Jieux - Exclusion NG 3] (Eterna round: R96, puzzle: Exclusion NG 3)”, the “apparent KD of MS2 coat protein” value reads like this: (input ligand: FMN 200 uM) 20 nM; under setting [2], 15.8 nM; (input ligand: none) 24.9 nM.
